In one test the test system is Control Cells. The test is described as follows: FACS binding to control cells. The settings on record: antibody 2.5 μg/mL. Here is the method:
(§1) In the present example, the antibody variants (2.5 μg/mL) are incubated with mammalian cells expressing the recombinant feline CD20 or canine CD20 or control cells. The amount of bound antibody is assessed by detection with a fluorescent-labeled reporter antibody reagent. Several controls are utilized to determine the background fluorescence: (i) CD20 expressing cells are incubated with the conjugated secondary antibody with an isotype antibody, and (ii) Control cells are incubated with the anti-CD20 antibodies.
(In flow cytometry, cells or beads pass a laser one at a time.)

For a further test, the target named is T1, recombinant canine CD20 (Canis lupus familiaris, UniProt Q3C2E2, A201T/C77Y/G273E/L198V).
T1 construct: are transfected with an expression vector encoding the full-length canine CD20 protein; expressed in transfected cells; host or cells: CHO cells (CHO-DG44)
T1 sequence (Q3C2E2 1-297 C77Y/L198V/A201T/G273E): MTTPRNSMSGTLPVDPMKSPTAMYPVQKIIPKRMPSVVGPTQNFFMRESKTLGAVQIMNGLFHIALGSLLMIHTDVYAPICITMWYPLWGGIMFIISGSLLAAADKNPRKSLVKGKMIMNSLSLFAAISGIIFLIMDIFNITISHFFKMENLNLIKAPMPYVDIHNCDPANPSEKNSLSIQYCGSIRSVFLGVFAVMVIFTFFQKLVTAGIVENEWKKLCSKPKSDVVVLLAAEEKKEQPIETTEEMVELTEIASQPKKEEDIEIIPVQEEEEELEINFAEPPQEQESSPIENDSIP
The test is described as follows: Competition experiments (epitope mapping) on CHO cells expressing recombinant canine CD20. It counts as binding. The settings on record: unlabelled competitor 25 μg/mL. Here is the method: Competition experiments are performed using standard techniques. Briefly, biotinylated recombinant anti-canine CD20 antibodies are titrated on CHO cells expressing recombinant canine CD20. Cells are first incubated with an excess of unlabelled recombinant anti-canine CD20 antibody (25 μg/mL). Thereafter, cells are incubated with a biotin-labeled antibody at 2 μg/mL. After washing, cells are incubated with streptavidin- phycoerythrin and fluorescence is analyzed by flow cytometry. An irrelevant antibody is used as negative control for inhibition. Results are expressed as a ratio between fluorescence intensity of the cells pre-incubated with the unlabelled antibody and the fluorescence intensity obtained for each biotinylated antibody alone. The percentage of inhibition (PI) is calculated by the following formula: PI=[1−(Experimental-Background)/Biotinylated antibody alone−Background)]×100%.

Test [1] deals with T2, recombinant canine CD20 expressed in HEK cells (Canis lupus familiaris, UniProt Q3C2E2, A201T/C77Y/G273E/L198V).
T2 construct: expressed in transfected cells; host or cells: HEK cells
T2 sequence (Q3C2E2 1-297 C77Y/L198V/A201T/G273E): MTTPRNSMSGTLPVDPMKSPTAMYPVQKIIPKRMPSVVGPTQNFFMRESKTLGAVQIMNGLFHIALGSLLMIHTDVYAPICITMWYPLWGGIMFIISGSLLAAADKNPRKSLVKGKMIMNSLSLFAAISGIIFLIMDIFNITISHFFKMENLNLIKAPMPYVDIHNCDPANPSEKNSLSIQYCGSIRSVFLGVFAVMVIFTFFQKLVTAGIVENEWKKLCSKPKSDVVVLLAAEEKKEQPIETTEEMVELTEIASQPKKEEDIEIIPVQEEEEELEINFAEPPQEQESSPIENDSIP
The test is described as follows: FACS binding to cells expressing recombinant canine CD20. As to the method:
as §1, with “The binding of the antibody variants of the present invention raised to canine CD20 can be assessed by FACS analysis for their binding to feline CD20 according to standard immunological techniques (see Veterinary Immunology and Immunopathology 2005, 106:179-196; Brousseau et al., Manual of Immunology Methods, CRC Press, 1998). In” for “In”

Test [2] concerns the target T3, recombinant canine CD20 expressed in CHO cells (Canis lupus familiaris, UniProt Q3C2E2, A201T/C77Y/G273E/L198V).
T3 construct: are transfected with an expression vector encoding the full-length canine CD20 protein; expressed in transfected cells; host or cells: CHO cells (CHO-DG44)
T3 sequence (Q3C2E2 1-297 C77Y/L198V/A201T/G273E): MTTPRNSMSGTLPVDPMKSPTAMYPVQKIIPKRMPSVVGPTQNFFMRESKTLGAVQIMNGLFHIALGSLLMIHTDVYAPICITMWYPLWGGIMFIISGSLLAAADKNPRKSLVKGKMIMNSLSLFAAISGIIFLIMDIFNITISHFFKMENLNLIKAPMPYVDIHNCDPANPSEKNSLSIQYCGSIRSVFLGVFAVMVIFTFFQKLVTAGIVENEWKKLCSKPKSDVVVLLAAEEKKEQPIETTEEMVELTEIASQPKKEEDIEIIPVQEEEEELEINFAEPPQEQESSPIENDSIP
In words: Binding affinity to recombinant canine CD20 expressed in CHO cells by FACS. The settings on record: CHO cells expressing canine CD20. As to the method: The antibody variants of the present invention are compared for their binding affinity to canine CD20. Binding affinity is assessed by measuring binding to the recombinant canine CD20 expressed in CHO cells by FACS analysis as described above.

Test [3] relates to feline CD20 expressed in mammalian cells. In words: FACS binding to cells expressing recombinant feline CD20. Here is the method: as §1, with “The binding of the antibody variants of the present invention raised to canine CD20 can be assessed by FACS analysis for their binding to feline CD20 according to standard immunological techniques (see Veterinary Immunology and Immunopathology 2005, 106:179-196; Brousseau et al., Manual of Immunology Methods, CRC Press, 1998). In” for “In”
Sequence of feline CD20 expressed in mammalian cells (as listed by the source): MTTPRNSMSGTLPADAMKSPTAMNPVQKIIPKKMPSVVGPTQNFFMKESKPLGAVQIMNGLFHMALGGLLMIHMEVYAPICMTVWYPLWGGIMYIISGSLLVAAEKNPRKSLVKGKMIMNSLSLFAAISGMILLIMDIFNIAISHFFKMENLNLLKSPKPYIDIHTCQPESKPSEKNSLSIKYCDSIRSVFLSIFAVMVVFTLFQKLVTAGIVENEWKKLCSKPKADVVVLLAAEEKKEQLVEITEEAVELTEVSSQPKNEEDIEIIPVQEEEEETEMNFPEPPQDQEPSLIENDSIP

The record followed here is US9616120B2, “Monoclonal antibodies directed to CD20” (VET THERAPEUTICS, INC., priority 2010, dated 2017).

B1: CD20-5: anti-canine CD20 antibody; full length HC SEQ ID NO. 40, LC SEQ ID NO. 41 (antibody)
heavy: QVQLKQSGAELVKPGASVKISCKASGYTFTDYYINWVKQRPGQGLEWIGKIGPRSGSIYYNEKFKGKATLTADKSSSTAYMQLRSLTSEDSAVYFCAVLKWGQGTLVTVSSASTTAPSVFPLAPSCGSQSGSTVALACLVSGYFPEPVTVSWNSGSLTSGVHTFPSVLQSSGLYSLSSMVTVPSSRWPSETFTCNVAHPASKTKVDKPVPKRENGRVPRPPDCPKCPAPEMLGGPSVFIFPPKPKDTLLIARTPEVTCVVVDLDPEDPEVQISWFVDGKQMQTAKTQPREEQFNGTYRVVSVLPIGHQDWLKGKQFTCKVNNKALPSPIERTISKARGQAHQPSVYVLPPSREELSKNTVSLTCLIKDFFPPDIDVEWQSNGQQEPESKYRTTPPQLDEDGSYFLYSKLSVDKSRWQRGDTFICAVMHEALHNHYTQKSLSHSPGK
light: DAVMTQIPLTLSVTIGQPASISCKSSQSLLHSDGKTYLNWLLQRPGQSPKRLIYLVSKLDSGVPDRFTGSGSGTDFTLKISRVEAEDLGVYYCWQGTHFPQTFGGGTHLTVLGQPKASPSVTLFPPSSEELGANKATLVCLISDFYPSGVTVAWKADGSPITQGVETTKPSKQSNNKYAASSYLSLTPDKWKSHSSFSCLVTHEGSTVEKKVAPAECS
modifications: canis familiaris/mus musculus
notes: anti-canine CD20 antibody; 41
Consider B1, for which the “mean fluorescence, Control Cells” value in the test on Control Cells amounted to 215 mean fluorescence units. Moreover, the “percentage of inhibition (PI), labeled antibody CD20-1” value with recombinant canine CD20 (biotin-labeled CD20-1 2 μg/mL) was 107.07%. Moreover, the “percentage of inhibition (PI), labeled antibody CD20-2” value in the test with recombinant canine CD20 (biotin-labeled CD20-2 2 μg/mL) worked out at 6.47%. In the test with recombinant canine CD20 (biotin-labeled CD20-5 2 μg/mL), the “percentage of inhibition (PI), labeled antibody CD20-5” value was determined as 85.88%. In test [1], the “binding to recombinant canine CD20 (in words)” value is reported as “effective binding”. The “mean fluorescence, Canine CD20” value in test [1] (antibody 2.5 μg/mL) is 2769 mean fluorescence units. The Kd in test [2] came out at 1.2 nM. In test [3] (antibody 2.5 μg/mL), the “mean fluorescence, Feline CD20” value worked out at 2048 mean fluorescence units. In test [3] (mammalian cells), the “binding to feline CD20 (in words)” value was “bind feline CD20”.

As a reminder, the Kd is the free concentration of one partner at which half of the binding sites on the other are occupied at equilibrium, for simple one-to-one binding.
